No end group written: not given here.
T1: human Y5 receptor (human, UniProt Q15761 1-445)
T1 sequence (looked up): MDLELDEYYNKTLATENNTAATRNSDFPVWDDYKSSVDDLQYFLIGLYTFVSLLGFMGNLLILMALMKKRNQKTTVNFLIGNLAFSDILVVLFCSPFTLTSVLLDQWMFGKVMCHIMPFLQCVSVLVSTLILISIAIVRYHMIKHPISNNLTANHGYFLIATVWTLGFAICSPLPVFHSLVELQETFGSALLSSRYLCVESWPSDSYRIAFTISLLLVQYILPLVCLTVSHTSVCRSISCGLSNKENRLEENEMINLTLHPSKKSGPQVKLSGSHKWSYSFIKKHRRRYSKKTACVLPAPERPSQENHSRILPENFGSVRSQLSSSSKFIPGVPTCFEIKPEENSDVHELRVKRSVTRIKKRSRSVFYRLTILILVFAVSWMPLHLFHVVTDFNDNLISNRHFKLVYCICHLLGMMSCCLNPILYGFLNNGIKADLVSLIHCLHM

T2: human Y2 receptor (human, UniProt P49146 1-381)
T2 sequence (looked up): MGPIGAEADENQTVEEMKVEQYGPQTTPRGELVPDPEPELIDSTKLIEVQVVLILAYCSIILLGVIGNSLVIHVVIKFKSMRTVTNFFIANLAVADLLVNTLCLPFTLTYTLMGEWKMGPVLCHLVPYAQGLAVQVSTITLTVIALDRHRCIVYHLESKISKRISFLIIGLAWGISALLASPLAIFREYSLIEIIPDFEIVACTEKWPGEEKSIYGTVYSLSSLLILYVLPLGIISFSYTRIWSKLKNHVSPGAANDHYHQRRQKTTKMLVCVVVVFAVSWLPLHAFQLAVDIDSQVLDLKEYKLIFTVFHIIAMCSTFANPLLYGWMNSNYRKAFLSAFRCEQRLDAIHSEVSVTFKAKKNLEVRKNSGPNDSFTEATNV


Experiments:
human Y5 receptor [1] = target: T1, human Y5 receptor; test: cell-based or functional assay
human Y5 receptor [2] = target: T1, human Y5 receptor; test: competition binding, 125I-NPY displaced, COS-7 cells with human Y5
Description: (§1) Transfected COS-7 cells are transferred to culture plates one day after transfection at a density of 40×10^3 cells per well aiming at 5-8% binding of the radioactive ligand. […] Determinations are made in duplicate. Steady state binding is reached with the radioactive ligand under these conditions. EC50 values were calculated using a standard pharmacological data handling software, Prism 3.0 (graphPad Sofware, San Diego, USA).

human Y4 receptor [3] = target: T3, human Y4 receptor (human, UniProt P50391 1-375); test: cell-based or functional assay
human Y2 receptor = target: T2, human Y2 receptor; test: cell-based or functional assay
human Y4 receptor [4] = target: T3, human Y4 receptor; test: competition binding, 125I-PP displaced, COS-7 cells with human Y4
Description: as §1

T3 sequence (P50391 whole entry): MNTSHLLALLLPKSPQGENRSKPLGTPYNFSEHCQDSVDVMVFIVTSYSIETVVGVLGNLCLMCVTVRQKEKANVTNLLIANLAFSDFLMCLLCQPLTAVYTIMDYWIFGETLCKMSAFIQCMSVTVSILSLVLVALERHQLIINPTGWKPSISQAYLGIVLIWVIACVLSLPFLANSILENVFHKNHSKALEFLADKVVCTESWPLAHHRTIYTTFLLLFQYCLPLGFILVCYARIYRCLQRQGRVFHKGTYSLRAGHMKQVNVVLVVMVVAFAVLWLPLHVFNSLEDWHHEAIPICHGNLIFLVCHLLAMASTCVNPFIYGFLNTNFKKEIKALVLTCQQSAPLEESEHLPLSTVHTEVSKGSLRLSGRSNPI

Binder | EC50 (inositol phosphate turnover) (human Y5 receptor [1]) [nM] | IC50 (human Y5 receptor [2]) [nM] | EC50 (inositol phosphate turnover) (human Y4 receptor [3]) [nM] | EC50 (inositol phosphate turnover) (human Y2 receptor) [nM] | IC50 (human Y4 receptor [4]) [nM]
KKKKKKRHYLNLVTRQRY-NH2 (also called [Lys]6-PYY25-36) [Lys-Lys-Lys-Lys-Lys-Lys-PYY25-36] | > 1000 | 429 |  |  | 
APLKPVYPGDNATPEQMAQYAADLRRYINMLTRQRY-NH2 [[Lys4,Gln34]PP] | 3.8 | 0.87 | 64 | 0.17 | 6

From patent publication US20090186811A1 (published 2009)
